Patent publication US20250215403A1, “Compositions and Methods for Cardiac Tissue Regeneration” (Temple University - Of The Commonwealth System Of Higher …, priority 2022, published 2025)

How the values were obtained:
[1] = Mouse MI model: echocardiography of cardiac function 28 days post-MI; format: in vivo
Method: In vivo transfection of modRNA was done as described previously in a recent method paper (Magadum A., et al., Circulation. 2020, 141 (15): 1249-1265; Sultana N., et al., Mol Ther, 2017, 25 (6): 1306-1315) using sucrose citrate buffer containing 10 μl of sucrose in nuclease-free water (0.3 g/ml), 10 μl of citrate (0.1M pH-7; Sigma) mixed with 10 μl of different concentrations of modRNA in saline to a total volume of 30 μl. Immediately after LAD ligation, mice received an intra-myocardial injection of modRNA (100 μg) in total volume of 30 μL at 3 different sites (mid-anterior×2 places and apical anterior) in the peri-infarct area (Magadum A., et al., Circulation. 2020, 141 (15): 1249-1265; Magadum, A., et al., 2021, Advanced Science, 9:2004661). For in vitro transfection, RNAiMAX transfection reagent (Life Technologies) was used according to manufacturer's recommendation (Magadum A., et al., Circulation. 2020, 141 (15): 1249-1265; Sultana N., et al., Mol Ther, 2017, 25 (6): 1306-1315).
(§1) All surgical and experimental procedures with mice were performed in accordance with protocols approved by Institutional Animal Care and Use Committees at Temple University Animal Care and Use Committee (IACUC). C57BL6 or CM-specific MADM mice (8-12-weeks-old) were anesthetized with isoflurane. MI was induced by permanent ligation of the LAD, as previously described (Garikipati, V. N. S., et al., 2019, Nature Communications, 10:4317). Briefly, the left thoracic region was shaved and sterilized. After intubation, the heart was exposed through a left thoracotomy. A suture was placed to ligate the LAD. The thoracotomy and skin were sutured closed in layers. Excess air was removed from the thoracic cavity, and the mouse was removed from ventilation when normal breathing was established. In order to determine the effect of modRNA on cardiovascular outcome after MI, modRNAs (100 μg/heart) were injected into the infarct zone immediately after LAD ligation (Magadum A., et al., Circulation. 2020, 141 (15): 1249-1265). For examination of heart histology, hearts were collected at the end of each study, quickly washed in PBS, weighed, and fixed in 4% PFA for cryo-sectioning and immunostainings. In all experiments, the surgeon was blinded to the treatment group. For assessment of heart histology, hearts were collected at the end of each study. The hearts were excised, briefly washed in PBS, perfused with perfusion buffer, weighed and fixed in 4% PFA at 4° C. overnight. The heart blocks were transverse sectioned at 6-8 μm using cryostat. The heart sections were further processed for histological evaluation using immunostaining (see below) or histological scar staining using Masson's trichrome staining kit (Sigma) according to standard procedures. Measuring the ratio of heart weight to body weight was done using a scale. This ratio was calculated as the heart tissue weight relative to the mouse total body weight in grams (g).
Mice underwent surgery to ligate the left anterior descending coronary artery as reported previously, followed by intramyocardial administration of exosomes or EVs (1×10^9) from hiPSC cells and IMR-90 cells suspended in PBS into the left ventricular wall (border zone) at two different locations and at the heart apex at one location immediately after left anterior descending ligation (Yue, Y., et al., 2020, Circulation Research, 126:315-329). The saline group underwent the same surgery but received saline without exosomes. Tissue was harvested at 7- or 28-days post-MI for histological analysis.

cardiomyocytes (CM) = experiment: Mouse MI model: immunostaining of heart sections for CM cell cycle markers (ki67, pH3, BrdU, Aurora B); format: in vivo; conditions: seven days post-MI
Method: as §1
Mice were injected with AAV9-GFP or AAV9-YAP1-shRNA (GeneCopoeia) through retro-orbital injection 7 days before LAD. A total of 5×10^11 viral genomes (50 μl total volume delivered) was injected per mouse. The level of YAP1 inhibition was determined at the mRNA level by qPCR 14 days post injection.
Mice hearts were harvested, weighed, and fixed in 4% PFA/PBS overnight on shaker and then washed with PBS for 1 hour and incubated in 30% sucrose/PBS at 4° C. for 12-18 hours. Hearts were then fixed in OCT and frozen at −80° C. (Magadum A., et al., Circulation. 2020, 141 (15): 1249-1265). Transverse heart sections (6-8 μm) were made using a cryostat. Frozen sections were rehydrated in PBS for 5-10 min followed by permeabilization with PBS with 0.1% Triton™ X100 (PBST) for 7-8 min. Heart sections were then treated with 3% H2O2 for 5 min and washed (3×5 min) with PBST. The samples were then blocked with PBS+10% Donkey normal serum+0.1% Triton™ X100 (PBSST) for 1 hour at room temperature. Primary antibodies (see complete list of primary antibodies used for this Example in Table 2 below) diluted in PBST were added and incubated overnight at 4° C. Slides were washed with PBST (3×5 min) followed by incubation with a secondary antibody (Invitrogen, 1:200) diluted in PBST for 90-120 min at room temperature. The samples were further washed with PBST (3×5 min) and stained with DAPI or Hoechst 33342 (1 μg/ml) diluted in PBST for 7 min. After being washed with PBST (3×7 min) and tap water (1×5 min) slides were mounted with mounting medium (VECTASHIELD®) for imaging (Magadum A., et al., Circulation. 2020, 141 (15): 1249-1265). Stained slides were stored at 4° C. All staining was performed on 4-8 hearts/group, with 2-3 sections/heart. For immunostaining with wheat germ agglutinin (WGA) for CM size quantification, images were captured at 40× magnification, and ImageJ was used to determine the area of each cell. […]

NRVM = experiment: TUNEL apoptosis of NRVMs under hypoxic conditions; format: cell-based, rat; conditions: hypoxic conditions for 24 hours; agent alone

B1: PSAT1 modRNA: modified mRNA with N1-methylpseudouridine, transcribed in vitro, encoding phosphoserine aminotransferase 1 (ORF SEQ ID NO: 1, RNA SEQ ID NO: 2) (nucleic acid)
chain: AUGGAAGCCACCAAGCAAGUGGUUAACUUUGGGCCCGGGCCUGCCAAGCUGCCACACUCGGUAUUGUUGGAGAUCCAGAAGCAGCUACUAGACUACAGAGGACUCGGCAUCAGUGUGCUCGAAAUGAGUCACAGGUCAUCAGAUUUUGCCAAGAUUAUUGGCAAUACAGAGAAUCUUGUGAGGGAAUUGCUAGCUGUUCCCAACAACUACAAGGUGAUCUUUGUACAAGGAGGUGGGUCUGGCCAGUUCAGUGCUGUCCCCUUAAAUCUGAUUGGCCUGAAAGCUGGAAGGAGUGCUGACUACGUGGUGACCGGAGCUUGGUCAGCUAAGGCUGCGGAAGAAGCCAAGAAGUUUGGAACGGUGAACAUUGUCCACCCUAAACUUGGAAGUUACACAAAAAUUCCAGACCCAAGCACCUGGAACCUCAACCCGGACGCCUCCUAUGUAUACUUCUGUGCAAACGAGACUGUGCACGGGGUGGAGUUUGACUUCGUACCUGACGUCAAGGGAGCGGUGCUGGUCUGUGACAUGUCCUCAAACUUCUUAUCCAGGCCGGUGGAUGUUUCCAAGUUUGGUGUGAUUUUCGCUGGUGCUCAGAAGAAUGUUGGCUCUGCCGGGGUGACGGUGGUGAUUGUCCGGGAUGACCUGCUGGGGUUCUCGCUCAGAGAGUGCCCAUCAGUCCUUGACUACAAAGUGCAGGCUGGGAACAACUCUUUGUAUAACACACCUCCGUGCUUCAGCAUCUACGUCAUGGGCAUGGUCCUGGAAUGGAUCAAGAACAACGGCGGGGCCGCAGCCAUGGAGAAGCUCAGCUCCAUCAAAUCCCAAAUGAUUUAUGAGAUCAUUGAUAAUUCUCAAGGAUUUUAUGUAUGCCCAGUGGAGCGCCAGAAUAGAAGCAGGAUGAACAUCCCAUUUCGCAUUGGCAACGCCAAAGGAGACGAAGCUUUGGAAAAGCGGUUUCUUGACAAGGCGGUAGAACUCAACAUGAUCUCCUUGAAGGGGCACAGGUCAGUGGGAGGCAUUCGUGCCUCUCUGUAUAACGCUGUCACAACCGAAGACGUUGAGAAGCUGGCGGCCUUCAUGAAGAAUUUCUUGGAGAUGCAUCAGCUGUGA
modifications: N1-methylpseudouridine
LV end-diastolic posterior wall thickness [1]: significantly increased | LV end-systolic posterior wall thickness [1]: significantly increased | Fractional Shortening (% FS) ([1]; compared to Luc): significantly improved | LVIDd (left ventricular internal diameter end-diastole) ([1]; compared to control): Improvements | LVIDs (left ventricular internal diameter end-systole) ([1]; compared to control): Improvements | Ejection Fraction (% EF) ([1]; myocardial delivery, compared to Luc): significantly improved | CM cell cycle inhibition under YAP1 inhibition (cardiomyocytes (CM); PSAT1 modRNA plus AAV9-YAP1-shRNA, compared to controls, significantly lower rate than PSAT1 modRNA alone): partially reversed | CMs positive for Aurora B (cardiomyocytes (CM); compared to Luc modRNA): significant increase | CMs positive for BrdU (DNA synthesis) (cardiomyocytes (CM); compared to Luc modRNA): significant increase | CMs positive for pH3 (cardiomyocytes (CM); compared to Luc modRNA): significant increase | NRVM / CM apoptosis (TUNEL+ CMs) (NRVM): significantly inhibited
